Data as given in patent US20240034774A1.

Experiments:
Assay in all cases: cell-based or functional assay
[1] = molecular target: HIV-1 envelope glycoprotein gp120 of virus 92US727 (HIV-1)
[2] = molecular target: HIV-1 envelope glycoprotein gp120 of virus VS001 (HIV-1)
[3] = molecular target: HIV-1 envelope glycoprotein gp120 of virus 7141 (HIV-1)
[4] = molecular target: 152 patient-derived subtype B viruses obtained from pre-ART plasma
[5] = molecular target: HIV-1 envelope glycoprotein (gp120) of virus 1413 (HIV-1)
[6] = molecular target: HIV-1 envelope glycoprotein (gp120) of virus 7576 (HIV-1)
[7] = molecular target: HIV-1 envelope glycoprotein (gp120) of virus VS044 (HIV-1)
[8] = molecular target: HIV-1 envelope glycoprotein (gp120) of virus VS026 (HIV-1)
[9] = molecular target: HIV-1 envelope glycoprotein (gp120) of virus VS039 (HIV-1)
[10] = molecular target: HIV-1 envelope glycoprotein (gp120) of virus 7141 (HIV-1)
[11] = molecular target: HIV-1 envelope glycoprotein (gp120) of virus 8110 (HIV-1)
[12] = molecular target: HIV-1 envelope glycoprotein (gp120) of virus VS042 (HIV-1)
[13] = molecular target: HIV-1 envelope glycoprotein (gp120) of virus 1003 (HIV-1)
[14] = molecular target: HIV-1 envelope glycoprotein (gp120) of virus VS049 (HIV-1)
[15] = molecular target: HIV-1 envelope glycoprotein (gp120) of virus 7051 (HIV-1)
[16] = molecular target: HIV-1 envelope glycoprotein (gp120) of virus 8134 (HIV-1)
[17] = molecular target: HIV-1 envelope glycoprotein (gp120) of virus VS030 (HIV-1)
[18] = molecular target: HIV-1 envelope glycoprotein (gp120) of virus CHO77 (HIV-1)
[19] = molecular target: HIV-1 envelope glycoprotein (gp120) of virus 92HT593 (HIV-1)
[20] = molecular target: HIV-1 envelope glycoprotein (gp120) of virus 92US712 (HIV-1)
[21] = molecular target: HIV-1 envelope glycoprotein (gp120) of virus 7467 (HIV-1)
[22] = molecular target: HIV-1 envelope glycoprotein (gp120) of virus VS046 (HIV-1)
[23] = molecular target: HIV-1 envelope glycoprotein (gp120) of virus VS043 (HIV-1)
[24] = molecular target: HIV-1 envelope glycoprotein (gp120) of virus THRO (HIV-1)
[25] = molecular target: HIV-1 envelope glycoprotein (gp120) of virus 7015 (HIV-1)
[26] = molecular target: HIV-1 envelope glycoprotein (gp120) of virus 92US657 (HIV-1)
[27] = molecular target: HIV-1 envelope glycoprotein (gp120) of virus 7103 (HIV-1)
[28] = molecular target: HIV-1 envelope glycoprotein (gp120) of virus 8106 (HIV-1)
[29] = molecular target: HIV-1 envelope glycoprotein (gp120) of virus 8320 (HIV-1)
[30] = molecular target: HIV-1 envelope glycoprotein (gp120) of virus REJO (HIV-1)
[31] = molecular target: HIV-1 envelope glycoprotein (gp120) of virus 7595 (HIV-1)
[32] = molecular target: HIV-1 envelope glycoprotein (gp120) of virus 8176 (HIV-1)
[33] = molecular target: HIV-1 envelope glycoprotein (gp120) of virus VS004 (HIV-1)
[34] = molecular target: HIV-1 envelope glycoprotein (gp120) of virus 8117 (HIV-1)
[35] = molecular target: HIV-1 envelope glycoprotein (gp120) of virus 8318 (HIV-1)
[36] = molecular target: HIV-1 envelope glycoprotein (gp120) of virus 1012 (HIV-1)
[37] = molecular target: HIV-1 envelope glycoprotein (gp120) of virus 92US727 (HIV-1)
[38] = molecular target: HIV-1 envelope glycoprotein (gp120) of virus VS001 (HIV-1)
[39] = molecular target: HIV-1 envelope glycoprotein (gp120) of virus 1489 (HIV-1)
[40] = molecular target: HIV-1 envelope glycoprotein (gp120) of virus 7552 (HIV-1)
[41] = molecular target: HIV-1 envelope glycoprotein (gp120) of virus VS017 (HIV-1)
[42] = molecular target: HIV-1 envelope glycoprotein (gp120) of virus 302076 (HIV-1)

B1: 1.1.78-1 (antibody, human IgG1, kappa, V domains shown)
VH: QVQLLQSGAAVTKPGASVRVSCEASGYNIRDYFIHWWRQAPGQGLQWVGWINPKTGQPNNPRQFQGRVSLTRHASWDFDTFSFYMDLKALRSDDTAVYFCARQRSDYWDFDVWGSGTQVTVSS
VL: DIQMTQSPSSLSASVGDTATITCQANGYLNWYQQRRGKAPKLLIYDGSKLERGVPSRFSGRRWGQEYHLTINNLQPEDIATYFCQVYEFFGPGTRLDLKR
[1]
  neutralization IC50: > 50 µg/mL
[2]
  neutralization IC50: 3.3 µg/mL
[3]
  neutralization IC50: 29.5 µg/mL

B2: 3.1.17-1 (antibody, human IgG1, kappa, V domains shown)
VH: QVQLLQSGAAVTKPGASVRVSCEASGYNIRDYFIHWWRQAPGQGLQWVGWINPKTGQPNNPRQFQGRVSLTRHASWDFDTFSFYMDLKALRSDDTAVYFCARQRSDYWDFDVWGSGTQVTVSS
VL: DIQMTQSPSSLSARVGDTATITCQANGYLNWYQQRRGKAPKLLIYDGSKLERGVPARFSGRRWGQEYHLTINNLQPEDVATYFCQVYEFFGPGTRLDLKR
[1]
  neutralization IC50: > 50 µg/mL
[2]
  neutralization IC50: 2.21 µg/mL
[3]
  neutralization IC50: 25.5 µg/mL

B3: 2.2.17-1 (antibody, human IgG1, kappa, V domains shown)
VH: QVHLSQSGAAVTKPGASVRVSCEASGYKIRDHFIHWWRQAPGQGLQWVGWINPKTGQPNNPRQFQGRVSLTRHASWDFDTFSFYMDLKAVRSDDTAIYFCARQRSDYWDFDVWGSGTQVTVSS
VL: DIQMTQSPSSLSARVGDTATITCQANGYLNWYQQRRGKAPKLLIYDGSKLERGVPARFSGRRWGQEYHLTINNLQPEDVATYFCQVYEFFGPGTRLDLKR
[1]
  neutralization IC50: > 50 µg/mL
[2]
  neutralization IC50: 4.38 µg/mL
[3]
  neutralization IC50: 6.28 µg/mL

B4: 2.3.17-1 (antibody, human IgG1, kappa, V domains shown)
VH: QVHLSQSGAAVTKPGASVRVSCEASGYNIRDYFIHWWRQAPGQGLQWVGWINPKTGQPNNPRQFQGRVSLTRHASWDFDTFSFYMDLKAVRSDDTAIYFCARQRSDYWDFDVWGSGTQVTVSS
VL: DIQMTQSPSSLSARVGDTATITCQANGYLNWYQQRRGKAPKLLIYDGSKLERGVPARFSGRRWGQEYHLTINNLQPEDVATYFCQVYEFFGPGTRLDLKR
[1]
  neutralization IC50: > 50 µg/mL
[2]
  neutralization IC50: 4.54 µg/mL
[3]
  neutralization IC50: 31.3 µg/mL

B5: 1.1.102-1 (antibody, human IgG1, kappa, V domains shown)
VH: QVQLLQSGAAVTKPGASVRVSCEASGYNIRDYFIHWWRQAPGQGLQWVGWINPKTGQPNNPRQFQGRVSLTRHASWDFDTFSFYMDLKALRSDDTAVYFCARQRSDYWDFDVWGSGTQVTVSS
VL: DIQMTQSPSSLSASVGDRATITCQANGYLNWYQQRRGKAPKLLIYDGSKLERGVPSRFSGSRWGQEYHLTISSLQPEDIATYFCQVYEFFGPGTRLDLKR
[1]
  neutralization IC50: > 50 µg/mL
[2]
  neutralization IC50: 3 µg/mL
[3]
  neutralization IC50: 22.7 µg/mL

B6: 3.1.18-1 (antibody, human IgG1, kappa, V domains shown)
VH: QVQLLQSGAAVTKPGASVRVSCEASGYNIRDYFIHWWRQAPGQGLQWVGWINPKTGQPNNPRQFQGRVSLTRHASWDFDTFSFYMDLKALRSDDTAVYFCARQRSDYWDFDVWGSGTQVTVSS
VL: DIQMTQSPSSLSARVGDRATITCQANGYLNWYQQRRGKAPKLLIYDGSKLERGVPARFSGSRWGQEYHLTISSLQPEDVATYFCQVYEFFGPGTRLDLKR
[1]
  neutralization IC50: > 9.8 µg/mL
[2]
  neutralization IC50: 3.52 µg/mL
[3]
  neutralization IC50: > 9.8 µg/mL

B7: 2.2.18-1 (antibody, human IgG1, kappa, V domains shown)
VH: QVHLSQSGAAVTKPGASVRVSCEASGYKIRDHFIHWWRQAPGQGLQWVGWINPKTGQPNNPRQFQGRVSLTRHASWDFDTFSFYMDLKAVRSDDTAIYFCARQRSDYWDFDVWGSGTQVTVSS
VL: DIQMTQSPSSLSARVGDRATITCQANGYLNWYQQRRGKAPKLLIYDGSKLERGVPARFSGSRWGQEYHLTISSLQPEDVATYFCQVYEFFGPGTRLDLKR
[1]
  neutralization IC50: > 34 µg/mL
[2]
  neutralization IC50: 2.51 µg/mL
[3]
  neutralization IC50: 5.04 µg/mL

B8: 2.3.18-1 (antibody, human IgG1, kappa, V domains shown)
VH: QVHLSQSGAAVTKPGASVRVSCEASGYNIRDYFIHWWRQAPGQGLQWVGWINPKTGQPNNPRQFQGRVSLTRHASWDFDTFSFYMDLKAVRSDDTAIYFCARQRSDYWDFDVWGSGTQVTVSS
VL: DIQMTQSPSSLSARVGDRATITCQANGYLNWYQQRRGKAPKLLIYDGSKLERGVPARFSGSRWGQEYHLTISSLQPEDVATYFCQVYEFFGPGTRLDLKR
[1]
  neutralization IC50: > 23 µg/mL
[2]
  neutralization IC50: 2.37 µg/mL
[3]
  neutralization IC50: > 23 µg/mL

B9: Antibody 1.52.90-1 (antibody, V domains shown)
VH: QVQLLQSGAAVTKPGASVRVSCEASGYNIRDYFIHWWRQAPGQGLQWVGWINPKTGQPNNPRQFQGRVSLTRHASFDFDTFSFYMDLKALRSDDTAVYFCARQRSDYWDFDVWGSGTQVTVSS
VL: DIQMTQSPSSLSASVGDRATITCQANGYLNWYQQRRGKAPKLLIYDGSKLERGVPSRFSGSRWGQEYNLTISSLQPEDIATYFCQVYEFFGPGTRLDLKR
[4]
  Breadth (% viruses neutralized with an IC95 ≤ 50 µg/mL): 78%
  Geomean IC95: 4.56 µg/mL
  Median IC95: 4.42 µg/mL

B10: Antibody 1.1.104-1 (antibody, human IgG1, kappa, V domains shown)
VH: QVQLLQSGAAVTKPGASVRVSCEASGYNIRDYFIHWWRQAPGQGLQWVGWINPKTGQPNNPRQFQGRVSLTRHASWDFDTFSFYMDLKALRSDDTAVYFCARQRSDYWDFDVWGSGTQVTVSS
VL: DIQMTQSPSSLSASVGDTATITCQANGYLNWYQQRRGKAPKLLIYDGSKLERGVPSRFSGRRWGQEYTLTINNLQPEDIATYFCQVYEFFGPGTRLDLKR
[5]
  Virus Neutralization Potency: 4.34 µg/mL
[6]
  Virus Neutralization Potency: 1.1 µg/mL
[7]
  Virus Neutralization Potency: 0.28 µg/mL
[8]
  Virus Neutralization Potency: 0.19 µg/mL
[9]
  Virus Neutralization Potency: 0.1 µg/mL
[10]
  Virus Neutralization Potency: 6.57 µg/mL
[11]
  Virus Neutralization Potency: 4.19 µg/mL
[12]
  Virus Neutralization Potency: 2.33 µg/mL
[13]
  Virus Neutralization Potency: 1.44 µg/mL
[14]
  Virus Neutralization Potency: > 100 µg/mL
[15]
  Virus Neutralization Potency: 1.32 µg/mL
[16]
  Virus Neutralization Potency: 6.07 µg/mL
[17]
  Virus Neutralization Potency: 7.9 µg/mL
[18]
  Virus Neutralization Potency: 0.03 µg/mL
[19]
  Virus Neutralization Potency: 0.28 µg/mL
[20]
  Virus Neutralization Potency: 0.04 µg/mL
[21]
  Virus Neutralization Potency: 0.06 µg/mL
[22]
  Virus Neutralization Potency: 0.03 µg/mL
[23]
  Virus Neutralization Potency: 1.49 µg/mL
[24]
  Virus Neutralization Potency: 4.27 µg/mL
[25]
  Virus Neutralization Potency: 0.67 µg/mL
[26]
  Virus Neutralization Potency: 0.36 µg/mL
[27]
  Virus Neutralization Potency: 1.82 µg/mL
[28]
  Virus Neutralization Potency: 2.8 µg/mL
[29]
  Virus Neutralization Potency: 4.34 µg/mL
[30]
  Virus Neutralization Potency: 0.02 µg/mL
[31]
  Virus Neutralization Potency: 8.47 µg/mL
[32]
  Virus Neutralization Potency: 0.16 µg/mL
[33]
  Virus Neutralization Potency: 4.8 µg/mL
[34]
  Virus Neutralization Potency: 1.22 µg/mL
[35]
  Virus Neutralization Potency: 0.32 µg/mL
[36]
  Virus Neutralization Potency: 2.87 µg/mL
[37]
  Virus Neutralization Potency: 10.6 µg/mL
[38]
  Virus Neutralization Potency: 0.34 µg/mL
[39]
  Virus Neutralization Potency: 0.28 µg/mL
[40]
  Virus Neutralization Potency: > 80 µg/mL
[41]
  Virus Neutralization Potency: 2.33 µg/mL
[42]
  Virus Neutralization Potency: 0.1 µg/mL
